The target of experiment [1] is T1, hiR2-FL-R582A-T7 (human, UniProt Q6PJF5 1-856).
T1 sequence: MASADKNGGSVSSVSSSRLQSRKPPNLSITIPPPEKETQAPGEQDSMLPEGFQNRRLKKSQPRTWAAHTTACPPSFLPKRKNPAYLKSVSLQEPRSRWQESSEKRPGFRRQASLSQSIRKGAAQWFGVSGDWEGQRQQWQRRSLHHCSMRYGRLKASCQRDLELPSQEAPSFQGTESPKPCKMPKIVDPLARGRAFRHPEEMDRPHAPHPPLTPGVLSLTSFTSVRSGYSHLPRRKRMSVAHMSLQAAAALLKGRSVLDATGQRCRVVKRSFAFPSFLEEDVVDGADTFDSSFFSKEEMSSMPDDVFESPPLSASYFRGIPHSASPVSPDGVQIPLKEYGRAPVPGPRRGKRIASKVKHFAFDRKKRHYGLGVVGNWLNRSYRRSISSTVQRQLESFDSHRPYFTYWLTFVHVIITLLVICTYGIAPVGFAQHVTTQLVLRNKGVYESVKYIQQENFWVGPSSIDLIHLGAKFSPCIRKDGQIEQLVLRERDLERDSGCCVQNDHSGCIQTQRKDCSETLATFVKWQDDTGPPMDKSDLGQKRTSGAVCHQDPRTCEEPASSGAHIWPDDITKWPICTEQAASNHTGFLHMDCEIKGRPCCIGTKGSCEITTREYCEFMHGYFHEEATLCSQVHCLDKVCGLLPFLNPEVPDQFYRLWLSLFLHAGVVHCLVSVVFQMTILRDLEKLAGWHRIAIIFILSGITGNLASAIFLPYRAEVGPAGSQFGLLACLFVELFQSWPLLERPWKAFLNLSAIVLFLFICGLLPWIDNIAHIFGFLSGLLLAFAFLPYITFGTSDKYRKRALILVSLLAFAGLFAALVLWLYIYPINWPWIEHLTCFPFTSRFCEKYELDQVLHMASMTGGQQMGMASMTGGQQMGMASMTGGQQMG
As to the kind of experiment: FACS on MEF-DKO cells expressing the variant, 3 µg/ml antibody. The essentials: (§1)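 Flow cytometry read-out of binding to variant-expressing cells after two-step staining on ice: 1 h with antibody at 3 μg/ml, then 1 h with PE-labelled goat anti-mouse IgG F(ab′)2 diluted 1:100. Controls received FACS buffer without primary antibody.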

For experiment [2], the target named is T2, hiR2-FL-K525A-T7 (human, UniProt Q6PJF5 1-856).
T2 sequence: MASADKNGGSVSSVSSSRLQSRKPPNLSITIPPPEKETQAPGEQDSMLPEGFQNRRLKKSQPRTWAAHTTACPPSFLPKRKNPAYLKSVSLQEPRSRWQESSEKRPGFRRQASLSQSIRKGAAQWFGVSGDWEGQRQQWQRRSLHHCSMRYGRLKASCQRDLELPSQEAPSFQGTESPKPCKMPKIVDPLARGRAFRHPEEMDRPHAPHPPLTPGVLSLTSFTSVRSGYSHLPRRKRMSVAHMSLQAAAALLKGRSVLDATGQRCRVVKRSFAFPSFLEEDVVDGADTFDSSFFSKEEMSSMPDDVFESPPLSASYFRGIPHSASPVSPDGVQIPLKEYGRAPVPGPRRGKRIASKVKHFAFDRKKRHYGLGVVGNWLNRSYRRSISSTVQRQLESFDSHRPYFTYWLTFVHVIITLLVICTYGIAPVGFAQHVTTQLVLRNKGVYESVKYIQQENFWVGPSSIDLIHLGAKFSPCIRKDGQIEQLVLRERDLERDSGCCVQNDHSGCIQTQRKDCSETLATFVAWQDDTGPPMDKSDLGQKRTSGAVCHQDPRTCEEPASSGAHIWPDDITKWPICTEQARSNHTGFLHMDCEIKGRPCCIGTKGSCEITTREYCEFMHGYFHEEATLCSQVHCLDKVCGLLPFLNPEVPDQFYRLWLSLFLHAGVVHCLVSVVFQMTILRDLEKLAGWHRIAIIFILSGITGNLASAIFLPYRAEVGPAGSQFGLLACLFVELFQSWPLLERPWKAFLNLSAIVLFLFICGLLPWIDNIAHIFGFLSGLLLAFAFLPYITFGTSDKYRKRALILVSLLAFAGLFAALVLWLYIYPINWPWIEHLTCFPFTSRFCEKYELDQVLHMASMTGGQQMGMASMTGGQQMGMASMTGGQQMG
The description is as above. The essentials:
as §1

B1: antibody 3 (antibody, V domains shown)
VH: QVTLKESGPGILQPSQTLSLTCSFSGFSLTTFAMGIGWVRQPSGKGLEWLAHIWWDGEKYNNPVLKSRLTISKDTSKNQVFLRIANVDTPDTATYYCARISSIYYIIDNWGQGTSVTVSS
VL: DIVLTQSPATLSVTPGHSVSLSCRASQSISNNLHWYQKKSHESPRLLIKYVSQSISGIPSRFSGSGSGTDFTLSINSVETEDFGMYFCQQSYNWPLTFGAGTKLELK
notes: mouse IgG, kappa light chain; also called clone #3; purified antibody 3
As for B1, in experiment [1], the “loss of binding vs wild type” value was at least 30%.

B2: antibody 48 (antibody, V domains shown)
VH: QVQLQQSGTELVRPGTSVKVSCKASGYAFTNYLIEWVKQRPGQGLEWIGVINPGSGFTKYNEKFKGKATLTADKSSSTVYMHLSSLTSEDSAVYFCARGLYRAMDYWGQGTSVTVSS
VL: DIQMTQSPASQSASLGESVTITCLASQTIATWLAWYQQKPGKSPQLLIYGATTLADGVPSRFSGGGSGTKFSFKISSLQAEDFVSYYCQQLYSTPYTFGGGTKLEIK
notes: mouse IgG, kappa light chain; also called clone #48; purified antibody 48
Turning to B2, in experiment [2], the “loss of binding vs wild type” value was at least 30%.

The values are drawn from patent US20240287172A1 (SCIRHOM, published 2024).
